The target of this assay is MBP-OsMYC2 (rice, UniProt Q336P5 1-699). In words: SPR.
Chain of MBP-OsMYC2 (Q336P5 whole entry): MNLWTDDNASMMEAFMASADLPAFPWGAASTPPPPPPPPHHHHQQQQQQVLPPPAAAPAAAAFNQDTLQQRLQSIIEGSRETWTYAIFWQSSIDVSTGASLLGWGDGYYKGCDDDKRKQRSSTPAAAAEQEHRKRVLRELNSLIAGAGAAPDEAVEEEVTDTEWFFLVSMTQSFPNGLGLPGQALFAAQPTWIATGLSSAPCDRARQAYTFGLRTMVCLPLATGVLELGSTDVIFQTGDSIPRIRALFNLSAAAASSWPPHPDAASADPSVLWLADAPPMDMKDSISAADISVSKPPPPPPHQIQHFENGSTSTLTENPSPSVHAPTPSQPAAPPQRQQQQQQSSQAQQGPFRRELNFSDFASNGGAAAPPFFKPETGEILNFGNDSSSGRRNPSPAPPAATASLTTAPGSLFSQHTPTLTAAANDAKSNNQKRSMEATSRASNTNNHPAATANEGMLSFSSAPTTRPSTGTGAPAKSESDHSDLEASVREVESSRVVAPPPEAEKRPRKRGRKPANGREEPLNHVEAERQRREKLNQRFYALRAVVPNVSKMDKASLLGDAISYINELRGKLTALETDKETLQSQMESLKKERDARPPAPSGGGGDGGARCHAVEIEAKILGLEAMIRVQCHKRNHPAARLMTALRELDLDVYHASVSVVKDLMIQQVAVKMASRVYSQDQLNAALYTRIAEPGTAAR

B1: GST-OsGSK2 (enzyme)
chain: MDQPAPAPEPMLLDAQPPAAVACDKKQQEGEAPYAEGNDAVTGHIISTTIGGKNGEPKRTISYMAERVVGTGSFGIVFQAKCLETGETVAIKKVLQDRRYKNRELQLMRAMDHPNVISLKHCFFSTTSRDELFLNLVMEYVPETLYRVLKHYSNANHRMPLIYVKLYMYQLFRGLAYIHTVPGVCHRDVKPQNVLVDPLTHQVKLCDFGSAKTLVPGEPNISYICSRYYRAPELIFGATEYTTSIDIWSAGCVLAELLLGQPLFPGESAVDQLVEIIKVLGTPTREEIRCMNPNYTEFRFPQIKAHPWHKVFHKRMPPEAIDLASRLLQYSPSLRCTALDACAHPFFDELREPNARLPNGRPFPPLFNFKHELANSSQELISRLIPEHVRRQATHNFFNTGS
Molecule B1 displayed a Kd of 40.4 nM.

Values taken from publication PMC7485985 (2020).
